The source of these data is patent publication US20240279356A1 (Xencor, published 2024).

Test [1] has as its target T1, cyno MSLN (Macaca fascicularis (cynomolgus)).
T1 construct: soluble antigen for Octet; also called cynomolgus MSLN
As to the kind of experiment: Octet BLI; bsAb on anti-human Fc sensor, cyno MSLN as analyte, one concentration. A general note: BLI is a label-free optical method that tracks binding on a fibre tip over time.

The target in test [2] is T2, human MSLN antigen (human, UniProt Q13421 296-580, limits assumed).
T2 construct: Soluble antigen for BLI; also called Mesothelin; MESO
T2 sequence (Q13421 other isoform, or with tags, fused parts or gaps limits assumed): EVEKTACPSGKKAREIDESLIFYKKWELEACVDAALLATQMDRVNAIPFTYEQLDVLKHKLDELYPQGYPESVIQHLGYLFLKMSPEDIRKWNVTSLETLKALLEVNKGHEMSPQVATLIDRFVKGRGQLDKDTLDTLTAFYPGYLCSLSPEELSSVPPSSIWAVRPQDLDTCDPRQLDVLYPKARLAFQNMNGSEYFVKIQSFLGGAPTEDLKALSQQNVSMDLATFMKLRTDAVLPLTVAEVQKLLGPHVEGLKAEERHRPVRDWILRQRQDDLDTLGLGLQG
As to the kind of experiment: Octet BLI; bsAb on anti-human Fc sensor, human MSLN as analyte, one concentration. An excerpt: Variants of MESO-C were engineered by introducing point substitutions into the variable heavy region (VH) and the variable light region (VL) to generate 11 VH variants and 16 VL variants (sequences for which are depicted in FIG. 18 as H1.1-H1.13 and in FIG. 19 as L1.1-L1.18). An additional 4 VL variants were generated by combining useful point substitutions (sequences for which are depicted in FIG. 19 as L1.19-L1.22). WT and variant variable heavy regions were paired with WT and variant variable light regions to generate variant variable regions (Fvs) which were produced in the context of anti-MSLN×anti-CD3 bispecific antibodies. The bispecific antibodies were screened for MSLN binding affinity using Octet®, a BioLayer Interferometry (BLI)-based method. Experimental steps for Octet® generally include the following: Immobilization (capture of ligand to a biosensor); Association (dipping of ligand-coated biosensors into wells containing the analyte); and Dissociation (returning of biosensors to well containing buffer). In an initial screening, anti-human Fc sensors were used to capture the bispecific mAbs and dipped into human MSLN antigen (one concentration to screen large library). The resulting dissociation constant of illustrative variants (KD), association rate (kₐ), dissociation rate (kd), as well as sensorgram response are depicted in FIG. 20. In further screening of favorite variants identified in the initial screen (and combination variants), bispecific mAbs were dipped into multiple concentrations of human MSLN antigen, data for which are depicted in FIG. 21 (from various screens).

Substitutions are numbered along the chain they refer to. In names and notes the source's numbering stands.

B1: XENP31701 (bispecific antibody)
heavy: QVQLVQSGAEVKKPGASVKVSCKASGYTFTSYWMHWVRQAPGQGLEWMGMIHPNSDNTIYYEKFQGRVTMTVDKSISTAYMELSRLRSDDTAVYYCAIIITPVVPKFDYWGQGTLVTVSSASTKGPSVFPLAPSSKSTSGGTAALGCLVKDYFPEPVTVSWNSGALTSGVHTFPAVLQSSGLYSLSSVVTVPSSSLGTQTYICNVNHKPSDTKVDKKVEPKSCDKTHTCPPCPAPPVAGPSVFLFPPKPKDTLMISRTPEVTCVVVDVKHEDPEVKFNWYVDGVEVHNAKTKPREEEYNSTYRVVSVLTVLHQDWLNGKEYKCKVSNKALPAPIEKTISKAKGQPREPQVYTLPPSREEMTKNQVSLTCDVSGFYPSDIAVEWESDGQPENNYKTTPPVLDSDGSFFLYSKLTVDKSRWEQGDVFSCSVMHEALHNHYTQKSLSLSPGK
scFv-Fc: not shown
light: DIVMTQSPDSLAVSLGERATINCKASHDVGTSVAWYQQKPGQSPKLLIYWASTRHTGVPDRFTGSGSGTDFTLTISSLQAEDVAVYFCQQYSSYPLTFGAGTKLEIKRTVAAPSVFIFPPSDEQLKSGTASVVCLLNNFYPREAKVQWKVDNALQSGNSQESVTEQDSKDSTYSLSSTLTLSKADYEKHKVYACEVTHQGLSSPVTKSFNRGEC
notes: VH WT, VL WT; also called MESO-C H1_L1; copies: 1 + 1 + 1
Take B1: in test [1], binding was put at a Kd of 0.0938 nM; the Response stood at 0.737; the off-rate constant (koff) (usually a measure of how fast the partners let go of each other) came to 5.74e-05 s⁻¹; the kon (in general, the rate constant with which the complex forms) was determined as 612000 M⁻¹ s⁻¹. Also, in test [2], the Kd (usually the free concentration of one partner at which half of the binding sites on the other are occupied at equilibrium, for simple one-to-one binding) amounted to 0.0805 nM; the Response was 0.86; the off-rate constant (koff) turned out to be 4.69e-05 s⁻¹; the on-rate (kon) worked out at 583000 M⁻¹ s⁻¹.

B2: XENP32555 (bispecific antibody)
Fab-Fc heavy chain (anti-MSLN VH): B1 heavy with D56G
scFv-Fc heavy chain (anti-CD3 H1.30_L1.47): not shown
light chain (anti-MSLN VL): B1 light
notes: 1+1 Fab-scFv-Fc bsAb; VH D55G, VL WT (Kabat); also called MESO-C H1.6_L1
With B2, in test [1], the Kd was 0.603 nM, the Response amounted to 1.11, the koff was determined as 0.000342 s⁻¹ and the on-rate (kon) came to 566000 M⁻¹ s⁻¹. Further, in test [2], the dissociation constant (Kd) turned out to be 0.684 nM, the Response worked out at 1.23, the off-rate constant (koff) stood at 0.000375 s⁻¹ and the kon came out at 549000 M⁻¹ s⁻¹.

B3: XENP32554 (bispecific antibody)
Fab-Fc heavy chain (anti-MSLN VH): B1 heavy with N54Q
scFv-Fc heavy chain (anti-CD3 H1.30_L1.47): not shown
light chain (anti-MSLN VL): B1 light
notes: 1+1 Fab-scFv-Fc bsAb; VH N53Q, VL WT (Kabat); also called MESO-C H1.5_L1
Regarding B3, in test [1], binding was characterised by a dissociation constant (Kd) of 0.414 nM, the Response is 1.03, the koff was 0.00023 s⁻¹ and the kon stood at 555000 M⁻¹ s⁻¹. Also, in test [2], the Kd was 0.483 nM, the Response was found to be 1.13, the off-rate (koff) was 0.000268 s⁻¹ and the on-rate constant (kon) was found to be 555000 M⁻¹ s⁻¹.

B4: XENP32553 (bispecific antibody)
Fab-Fc heavy chain (anti-MSLN VH): B1 heavy with H52N
scFv-Fc heavy chain (anti-CD3 H1.30_L1.47): not shown
light chain (anti-MSLN VL): B1 light
notes: 1+1 Fab-scFv-Fc bsAb; VH H52N, VL WT (Kabat); also called MESO-C H1.4_L1
With B4, in test [1], the equilibrium dissociation constant (Kd) was 0.585 nM, the Response turned out to be 1.06, the off-rate constant (koff) was 0.000337 s⁻¹ and the association rate constant (kon) amounted to 575000 M⁻¹ s⁻¹. In addition, in test [2], the Kd came out at 0.687 nM, the Response turned out to be 1.16, the koff came to 0.00037 s⁻¹ and the association rate constant (kon) amounted to 539000 M⁻¹ s⁻¹.

B5: XENP32550 (bispecific antibody)
Fab-Fc heavy chain (anti-MSLN VH): B1 heavy with S31G
scFv-Fc heavy chain (anti-CD3 H1.30_L1.47): not shown
light chain (anti-MSLN VL): B1 light
notes: 1+1 Fab-scFv-Fc bsAb; VH S31G, VL WT (Kabat); also called MESO-C H1.1_L1
In test [1], B5 showed a dissociation constant Kd of 0.254 nM, a Response of 0.891, an off-rate constant (koff) of 0.000146 s⁻¹ and a kon of 576000 M⁻¹ s⁻¹. Also, in test [2], the dissociation constant (Kd) was determined as 0.601 nM, the Response was found to be 1.02, the koff was 0.000314 s⁻¹ and the kon was 522000 M⁻¹ s⁻¹.

B6: XENP32551 (bispecific antibody)
Fab-Fc heavy chain (anti-MSLN VH): B1 heavy with W33Y
scFv-Fc heavy chain (anti-CD3 H1.30_L1.47): not shown
light chain (anti-MSLN VL): B1 light
notes: 1+1 Fab-scFv-Fc bsAb; VH W32Y, VL WT (Kabat); also called MESO-C H1.2_L1
As to B6, in test [1], the affinity, expressed as Kd, was 1.66 nM; the Response came out at 1.1; the koff came out at 0.000822 s⁻¹; the association rate constant (kon) is 495000 M⁻¹ s⁻¹. For the same molecule, in test [2], the Kd amounted to 1.6 nM, the Response came out at 1.19, the koff amounted to 0.000773 s⁻¹ and the kon turned out to be 483000 M⁻¹ s⁻¹.
